Laboratory results: publication PMC3813506 (2013)
One block for each molecule: values may come before it.

What was measured:
[1] = target: T1, Nupr1 (Homo sapiens, UniProt O60356); test: ITC; 40 µM MSL1 injected into 4 µM Nupr1 in the cell; 25°C, 10 mM acetate buffer pH 4.5; single-site binding model; heat of dilution of MSL1 used as reference
T1 chain: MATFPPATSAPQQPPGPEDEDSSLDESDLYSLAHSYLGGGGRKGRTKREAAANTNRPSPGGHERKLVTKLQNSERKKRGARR

[2] = target: Nupr1-Flag (pcDNA3-Nupr1-Flag) (UniProt O60356); test: proximity ligation; MiaPaCa-2 cells transfected with Nupr1-Flag and MSL1-V5, treated with cisplatin (5 µM or 10 µM) for 24 h; DuoLink kit; also combined with γ-H2AX staining
[3] = test system: Nupr1; test: ITC; conditions: apparent; dH -23 kcal/mol; DNA MW assumed (10^4 kDa); chemically damaged with etoposide; ITC: 10 mM acetate pH 4.5, 25 C, 0.03 mg/ml damaged DNA; CD/fluorescence: 50 mM acetate pH 4.5, 25 C, 20 uM protein; agarose gel: 2%, 1x TAE; NMR 25 C
[4] = test system: T2, TRX-MSL1 (Homo sapiens); test: ITC; conditions: apparent; dH 29 kcal/mol; DNA MW assumed (10^4 kDa); chemically damaged with etoposide; ITC: 10 mM acetate pH 4.5, 25 C, 0.03 mg/ml damaged DNA; CD/fluorescence: 50 mM acetate pH 4.5, 25 C, 20 uM protein; agarose gel: 2%, 1x TAE; NMR 25 C
T2 sequence: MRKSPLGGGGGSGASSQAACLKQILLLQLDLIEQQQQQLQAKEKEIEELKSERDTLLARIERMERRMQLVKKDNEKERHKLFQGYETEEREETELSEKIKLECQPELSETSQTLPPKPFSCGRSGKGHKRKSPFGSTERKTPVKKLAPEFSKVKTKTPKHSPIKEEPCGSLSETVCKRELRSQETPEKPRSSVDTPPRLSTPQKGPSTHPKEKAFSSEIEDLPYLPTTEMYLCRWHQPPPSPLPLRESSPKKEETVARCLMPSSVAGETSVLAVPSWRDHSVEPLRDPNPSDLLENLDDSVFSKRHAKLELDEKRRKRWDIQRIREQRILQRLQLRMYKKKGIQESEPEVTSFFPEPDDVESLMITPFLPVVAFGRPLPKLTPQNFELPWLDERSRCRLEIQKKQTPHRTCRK

[5] = test system: TRX-MSL1;Nupr1 (Homo sapiens;); test: ITC; conditions: MSL1 titrated into preformed Nupr1 + damaged-DNA complex; dH 28 kcal/mol; chemically damaged with etoposide; ITC: 10 mM acetate pH 4.5, 25 C, 0.03 mg/ml damaged DNA; CD/fluorescence: 50 mM acetate pH 4.5, 25 C, 20 uM protein; agarose gel: 2%, 1x TAE; NMR 25 C
[6] = target: T1, Nupr1; test: ITC

Kd [1]: 2800 nM
dH [1]: 39 kcal/mol
Molecule: TRX-tagged MSL1 (His-tagged TRX-MSL1 fusion protein, human MSL1, 413-residue-long differentially spliced isoform) (natural protein)

PLA dots (PLA combined with γ-H2AX staining, cisplatin) [2]: 53 PLA dots
PLA dots per nucleus (5 µM cisplatin) (dots PLA per nucleus) [2]: 32
PLA dots per nucleus (10 µM cisplatin) (dots PLA per nucleus) [2]: 57
Molecule: MSL1-V5 (pcDNA4-MSL1-V5) (from UniProt Q68DK7 1-614) (natural protein)

The remaining lines, values behind:

Molecule: etoposide-damaged DNA
Kd [3]: 400 nM
Kd [4]: 1200 nM
Kd [5]: 800 nM

B1: MSL1 (protein)
chain: MTMRSAVFKAAAAPAGGNPEQRLDYERAAALGGPEDEPGAAEAHFLPRHRKLKEPGPPLASSQGGSPAPSPAGCGGKGRGLLLPAGAAPGQQEESWGGSVPLPCPPPATKQAGIGGEPAAAGAGCSPRPKYQAVLPIQTGSLVAAAKEPTPWAGDKGGAASPAATASDPAGPPPLPLPGPPPLAPTATAGTLAASEGRWKSMRKSPLGGGGGSGASSQAACLKQILLLQLDLIEQQQQQLQAKEKEIEELKSERDTLLARIERMERRMQLVKKDNEKERHKLFQGYETEEREETELSEKIKLECQPELSETSQTLPPKPFSCGRSGKGHKRKSPFGSTERKTPVKKLAPEFSKVKTKTPKHSPIKEEPCGSLSETVCKRELRSQETPEKPRSSVDTPPRLSTPQKGPSTHPKEKAFSSEIEDLPYLSTTEMYLCRWHQPPPSPLPLRESSPKKEETVARCLMPSSVAGETSVLAVPSWRDHSVEPLRDPNPSDLLENLDDSVFSKRHAKLELDEKRRKRWDIQRIREQRILQRLQLRMYKKKGIQESEPEVTSFFPEPDDVESLMITPFLPVVAFGRPLPKLTPQNFELPWLDERSRCRLEIQKKQTPHRTCRK
modifications: Nupr1 preformed complex with etoposide-damaged DNA
Kd [6]: 800 nM
